Data: patent US20230121197A1, “ANTIBODIES SPECIFICALLY BINDING THE CARBOXYMETHYLATED CATALYTIC SUBUNIT OF PROTEIN PHOSPHATASE 2A” (Medizinische Universität Wien, priority 2020, published 2023)

T1: PP4c C-terminal peptide meL307, ac-PSKKPVADYFL-CH3 (α-carboxymethylated) (human, SMILES …)
T1 construct: also called mePP4c; PP4 Me
T1 peptide: Ac-PSKKPVADYFL-OMe

B1: 7C10-C5: α-carboxymethylation specific mouse monoclonal IgG1 antibody from single clone hybridoma 7C10-C5 (DSM ACC3350) (antibody)
heavy: MYRMQLLSCIALSLALVTNSDVQLQESGPGLVKPSQSLSLTCSVTGYSITSGYYWNWIRQFPGNKLEWMGYISYDGSNNYNPSLKNRISITRDTSKNQFFLKLNSVTTEDTATYYCAGRFAYWGQGTLVTVSAAKTTAPSVYPLAPVCGDTTGSSVTLGCLVKGYFPEPVTLTWNSGSLSSGVHTFPAVLQSDLYTLSSSVTVTSSTWPSQSITCNVAHPASSTKVDKKIEPRGPTIKPCPPCKCPAPNLLGGPSVFIFPPKIKDVLMISLSPIVTCVVVDVSEDDPDVQISWFVNNVEVHTAQTQTHREDYNSTLRVVSALPIQHQDWMSGKEFKCKVNNKDLPAPIERTISKPKGSVRAPQVYVLPPPEEEMTKKQVTLTCMVTDFMPEDIYVEWTNNGKTELNYKNTEPVLDSDGSYFMYSKLRVEKKNWVERNSYSCSVVHEGLHNHHTTKSFSRTPGK
light: MDMRVPAQLLGLLLLWLSGARCDVLMTQTPLSLPVSLGDQASISCRSSQSIVHSNGNTYLEWYLQKPGQSPKLLIYKVSNRFSGVPDRFSGSGSGTDFTLKINRVEAEDLGVYYCFQGSHVPWTFGGGTKLEIKADAAPTVSIFPPSSEQLTSGGASVVCFLNNFYPKDINVKWKIDGSERQNGVLNSWTDQDSKDSTYSMSSTLTLTKDEYERHNSYTCEATHKTSTSPIVKSFNRNEC
modifications: Amino acid sequence of the recombinant 7C10-C5 heavy chain; Amino acid sequence of the recombinant 7C10-C5 light chain
B2: 7C10-C5 monoclonal antibody (antibody, V domains shown)
VH: DVQLQESGPGLVKPSQSLSLTCSVTGYSITSGYYWNWIRQFPGNKLEWMGYISYDGSNNYNPSLKNRISITRDTSKNQFFLKLNSVTTEDTATYYCAGRFAYWGQGTLVTVSA
VL: DVLMTQTPLSLPVSLGDQASISCRSSQSIVHSNGNTYLEWYLQKPGQSPKLLIYKVSNRFSGVPDRFSGSGSGTDFTLKINRVEAEDLGVYYCFQGSHVPWTFGGGTKLEIK
notes: Used as hybridoma culture supernatant (ELISA, Western blot, IHC) or at 50 µg/mL (SPR); also called 7C10 X63; clone 7C10-C5

Key:
[1] = molecular target: PP2Ac C-terminal peptides (L309, meL309, amL309, pT304, pY307) (Homo sapiens, UniProt P67775); test: ELISA with PP2Ac C-terminal undecapeptides; format: binding
Procedure: 7C10-C5 was tested for its specificity to the unmodified, methylated or amidated carboxyl group of Leu^309 at the carboxy-terminus of PP2Ac by ELISA with 3 different undecapeptides (11-mers) (FIG. 4). Methylated and amidated peptides were compared because at physiological pH the α-carboxyl-group of Leu^309 is negatively charged and either the methylation or amidation of the α-carboxyl-group neutralizes its negative charge. This allowed the inventors to discriminate between a specificity for the amidated charge-neutralized PP2Ac C-terminus or the carboxymethylated charge-neutralized PP2Ac C-terminus.
Specifically, flat-bottom Nunc-Immuno Medisorp 96-well ELISA plates (Thermo; 467320) were coated o/n at 4° C. with 50 μl of either a peptide of the sequence ac-HVTRRTPDYFL-OH (L309; unmodified) (SEQ ID NO:18) at a concentration of 2 μg/ml, a peptide of the sequence ac-HVTRRTPDYFL-CH3 (meL309; methylated) (SEQ ID NO:18) at a concentration of 2 μg/ml in TBS (137 mM NaCl (AppliChem, #131659, 2.7 mM KCl (AppliChem, #131494), 24.8 mM Tris (AppliChem, #A1086), pH 7.4 with HCl) or a peptide of the sequence ac-HVTRRTPDYFL-NH2 (amL309; amidated) (SEQ ID NO:18) at a concentration of 2 μg/ml in TBS. Of note, the “ac-” in the peptides described here and in other Examples refers to an acetylated N-terminus. Said acetylation neutralizes the positive charge at the N-terminus, and the free charged N-terminus is thereby removed.
Then, the wells were washed once with TBS, blocked with 200 μl of 2% bovine serum albumin (BSA) (Sigma, A9647) in TBS for 1 hour at RT and washed again once with TBS. […] Bound antibodies were detected colorimetrically by addition of 50 μl of 33 μg/ml […] (TMB) (Sigma, T2885) in 0.1 M sodium acetate pH 6.0 and 0.01% H2O2 (Sigma, H1009). The colorimetric reaction was stopped after 10 min by addition of 50 μl 0.5 M H2SO4, and measured at 450 nm and 560 nm with a Perkin Elmer VICTOR® Nivo™ microplate reader. The results from 560 nm read were subtracted from the 450 nm read. […]

[2] = molecular target: T1, PP4c C-terminal peptide meL307, …; test: SPR (Biacore T200), antibody captured, peptide 50-800 nM as analyte, steady state analysis, 25 °C; SPR steady state; antibody captured at 50 µg/ml, PP4 Me peptide 50-800 nM as analyte
Procedure: The differential affinity of anti-carboxymethylated PP2Ac antibodies, 7C10-C5 and 2A10, to carboxymethylated PP2A catalytic subunit versus noncarboxymethylated PP2A catalytic subunit was determined by surface plasmon resonance (SPR) on a Biacore T200 (GE Healthcare) at the Core Facility Biomolecular & Cellular Analysis (University of Natural Resources and Life Sciences Vienna BOKU). The affinity of 7C10-C5 for carboxymethylated and noncarboxymethylated catalytic subunit of PP4 (PP4c), a PP2A-related phosphatase, was also determined.
Series S Sensor Chip CM5 (GE Healthcare, 10296958) Flow cells (e.g. Flow cells 3 and 4 for the data shown in Table 5 and FIG. 32) were coated with 30 μg/mL anti-mouse IgG antibody (in immobilization buffer) using the mouse antibody capture kit (GE Healthcare, BR-1008-38, Lot 10294578) via amine coupling according to the manufacturer's protocol (i.e. https://www.cytivalifesciences. com/en/us/shop/protein-analysis/spr-lab el-free-analysis/capture-reagents/mouse-antibody-capture-kit-p-05986). The immobilisation levels obtained were 11620.2 RU (Flow cell 1), 10836.5 RU (Flow cell 2), 11605.9 RU (Flow cell 3) and 11333.9 RU (Flow cell 4), and thus were within the specifications. […]
SPR experiments were performed with the BiacoreT200 instrument (Cytiva). […] The sensorgrams obtained were analyzed with BiacoreT200 Evaluation Software (version 3.1).

Row | Molecule | effect of concurrent Tyr307 phosphorylation on binding to carboxymethylated PP2Ac C-terminus [1] | detection difference carboxymethylated+Thr304 phosphorylated versus carboxymethylated peptide ([1]; at lower peptide concentrations (dilution series 8 μg/ml to 7.8125 ng/ml)) [fold] | signal intensity α-carboxymethylated PP2Ac peptide when Thr304 is phosphorylated versus not phosphorylated ([1]; peptides at 2 μg/ml) [fold] | Kd [2] [nM]
1 | B1 | not significantly altered | 4 | 1.6 | –
2 | B2 | – | – | – | 132
